US7335814B2, “Transgenic cells expressing glucosyltransferase nucleic acids” (The University of York, priority 2000, dated 2008)

Tests used:
Assay in all cases: purified protein, by the assay type
Conditions in all cases: other: glucose ester formation; pH 7.0; 30.0 °C
[1] = substrate: O=C(O)C=Cc1ccccc1
[2] = substrate: COc1cc(/C=C/C(=O)O)ccc1O
[3] = substrate: O=C(O)/C=C/c1ccc(O)cc1

B1: recombinant GTase A911 (Arabidopsis thaliana) (protein)
chain: MGSSEGQETHVLMVTLPFQGHINPMLKLAKHLSLSSKNLHINLATIESARDLLSTVEKPRYPVDLVFFSDGLPKEDPKAPETLLKSLNKVGAMNLSKIIEEKRYSCIISSPFTPWVPAVAASHNISCAILWIQACGAYSVYYRYYMKTNSFPDLEDLNQTVELPALPLLEVRDLPSFMLPSGGAHFYNLMAEFADCLRYVKWVLVNSFYELESEIIESMADLKPVIPIGPLVSPFLLGDGEEETLDGKNLDFCKSDDCCMEWLDKQARSSVVYISFGSMLETLENQVETIAKALKNRGLPFLWVIRPKEKAQNVAVLQEMVKEGQGVVLEWSPQEKILSHEAISCFVTHCGWNSTMETVVAGVPVVAYPSWTDQPIDARLLVDVFGIGVRMRNDSVDGELKVEEVERCIEAVTEGPAAVDIRRRAAELKRVARLALAPGGSSTRNLDLFISDITIA
- Km [1]: 50 µM
- Km [2]: 340 µM
- Km [3]: 390 µM
- Vmax [3]: 11.10 nkat/mg
